Data as given in the Immune Epitope Database (IEDB).
One block for each sequence: values may come before it.

How the values were obtained:
HLA-B*08:01 = experiment: IEDB peptide-MHC binding, purified MHC/direct/fluorescence; filed as Kd, often an IC50 or EC50 that approximates it; ≥ and ≤ were set here for values at or beyond the usual limits of such assays
HLA-A*03:01 [1] = experiment: as above
HLA-B*58:01 = experiment: as above
HLA-B*44:02 = experiment: as above
HLA-A*02:01 [2] = experiment: as above
HLA-B*15:01 [3] = experiment: as above
HLA-A*11:01 = experiment: as above
HLA-A*69:01 [4] = experiment: as above
HLA-A*01:01 = experiment: as above
HLA-A*31:01 [5] = experiment: as above
HLA-B*07:02 = experiment: as above
HLA-B*27:05 = experiment: as above
HLA-B*35:01 = experiment: as above
HLA-A*26:01 = experiment: as above
HLA-B*40:01 = experiment: as above
HLA-B*57:01 = experiment: as above
HLA-B*15:17 = experiment: as above; conditions: source organism: Giardia lamblia ATCC 50803
HLA-A*31:01 [6] = experiment: IEDB peptide-MHC binding, purified MHC/competitive/fluorescence; filed as Kd, often an IC50 or EC50 that approximates it; ≥ and ≤ were set here for values at or beyond the usual limits of such assays
HLA-A*24:03 = experiment: IEDB peptide-MHC binding, purified MHC/direct/fluorescence; filed as Kd, often an IC50 or EC50 that approximates it; ≥ and ≤ were set here for values at or beyond the usual limits of such assays; conditions: source organism: Pasteurella multocida
HLA-A*03:01 [7] = experiment: IEDB peptide-MHC binding, purified MHC/competitive/fluorescence; filed as Kd, often an IC50 or EC50 that approximates it; ≥ and ≤ were set here for values at or beyond the usual limits of such assays; conditions: source organism: Influenza A virus (A/nt/60/1968(H3N2))
HLA-B*39:01 = experiment: IEDB peptide-MHC binding, purified MHC/direct/fluorescence; filed as Kd, often an IC50 or EC50 that approximates it; ≥ and ≤ were set here for values at or beyond the usual limits of such assays
HLA-B*48:01 = experiment: as above
HLA-B*46:01 = experiment: as above
HLA-B*15:09 = experiment: as above
HLA-C*05:01 = experiment: as above; conditions: source organism: Vaccinia virus Copenhagen
HLA-A*02:01 [8] = experiment: IEDB peptide-MHC binding, purified MHC/competitive/fluorescence; filed as Kd, often an IC50 or EC50 that approximates it; ≥ and ≤ were set here for values at or beyond the usual limits of such assays; conditions: source organism: Vaccinia virus Copenhagen
HLA-B*15:01 [9] = experiment: as above; conditions: source organism: Vaccinia virus Copenhagen
HLA-A*69:01 [10] = experiment: as above; conditions: source organism: Vaccinia virus Copenhagen
HLA-A*29:02 [11] = experiment: IEDB peptide-MHC binding, purified MHC/direct/fluorescence; filed as Kd, often an IC50 or EC50 that approximates it; ≥ and ≤ were set here for values at or beyond the usual limits of such assays; conditions: source organism: West Nile virus
HLA-B*18:01 = experiment: as above; conditions: source organism: West Nile virus
HLA-A*29:02 [12] = experiment: IEDB peptide-MHC binding, purified MHC/competitive/fluorescence; filed as Kd, often an IC50 or EC50 that approximates it; ≥ and ≤ were set here for values at or beyond the usual limits of such assays; conditions: source organism: Cryptosporidium parvum Iowa II
[13] = source organism: Camelpox virus M-96
[14] = source organism: Giardia lamblia ATCC 50803
[15] = source organism: West Nile virus
[16] = source organism: Pasteurella multocida
[17] = source organism: Vibrio cholerae
[18] = source organism: Listeria monocytogenes
[19] = source organism: Campylobacter jejuni
[20] = source organism: Vibrio parahaemolyticus
[21] = source organism: Francisella tularensis subsp. holarctica LVS
[22] = source organism: Mycobacterium tuberculosis

Sequence: SQEDNHFSL
- Kd (HLA-B*08:01; [13]): ≥ 20 µM
- Kd (HLA-A*03:01 [1]; [13]): ≥ 20 µM
- Kd (HLA-B*58:01; [13]): ≥ 20 µM
- Kd (HLA-B*44:02; [13]): ≥ 20 µM
- Kd (HLA-A*02:01 [2]; [13]): ≥ 20 µM
- Kd (HLA-B*15:01 [3]; source organism: Variola virus): 2.79 µM
- Kd (HLA-A*11:01; [13]): ≥ 20 µM
- Kd (HLA-A*69:01 [4]; [13]): ≥ 20 µM
- Kd (HLA-A*01:01; [13]): ≥ 20 µM
- Kd (HLA-A*31:01 [5]; [13]): ≥ 20 µM
- Kd (HLA-B*07:02; [13]): ≥ 20 µM
- Kd (HLA-B*27:05; [13]): ≥ 20 µM
- Kd (HLA-B*35:01; source organism: Variola virus): 1.56 µM
- Kd (HLA-A*26:01; [13]): ≥ 20 µM
- Kd (HLA-B*40:01; source organism: Variola virus): 0.141 µM

Sequence: HSSVAGGLW
- Kd (HLA-B*08:01; [14]): ≥ 20 µM
- Kd (HLA-A*03:01 [1]; [14]): ≥ 20 µM
- Kd (HLA-B*57:01; [14]): 0.0535 µM
- Kd (HLA-B*58:01; [14]): 0.00374 µM
- Kd (HLA-B*15:17): 0.0011 µM
- Kd (HLA-B*44:02; [14]): ≥ 20 µM
- Kd (HLA-A*02:01 [2]; [14]): ≥ 20 µM
- Kd (HLA-B*15:01 [3]; [14]): ≥ 20 µM
- Kd (HLA-A*11:01; [14]): ≥ 20 µM
- Kd (HLA-A*69:01 [4]; [14]): ≥ 20 µM
- Kd (HLA-A*01:01; [14]): 0.59 µM
- Kd (HLA-A*31:01 [5]; [14]): ≥ 20 µM
- Kd (HLA-B*07:02; [14]): ≥ 20 µM
- Kd (HLA-B*27:05; [14]): ≥ 20 µM
- Kd (HLA-B*35:01; [14]): 0.278 µM
- Kd (HLA-A*26:01; [14]): ≥ 20 µM
- Kd (HLA-B*40:01; [14]): ≥ 20 µM

Sequence: TVHDRTPYR
- Kd (HLA-A*03:01 [1]; source organism: Influenza A virus (A/SW/MN/3128/00(H1N2))): ≥ 20 µM
- Kd (HLA-A*31:01 [6]; source organism: Influenza A virus (A/Waikato/7/2000(H3N2))): ≥ 20 µM

Sequence: MVGVGSLVK
- Kd (HLA-A*11:01; [15]): 0.027 µM
- Kd (HLA-A*31:01 [6]; [15]): ≥ 20 µM

- Kd (HLA-B*08:01; [16]): ≥ 20 µM
- Kd (HLA-A*03:01 [1]; [16]): ≥ 20 µM
- Kd (HLA-B*58:01; [16]): ≥ 20 µM
- Kd (HLA-A*02:01 [2]; [16]): 0.00619 µM
- Kd (HLA-B*15:01 [3]; [16]): 0.267 µM
- Kd (HLA-A*11:01; [16]): 3.03 µM
- Kd (HLA-A*69:01 [4]; [16]): 0.599 µM
- Kd (HLA-A*24:03): ≥ 20 µM
- Kd (HLA-A*01:01; [16]): ≥ 20 µM
- Kd (HLA-A*31:01 [5]; [16]): ≥ 20 µM
- Kd (HLA-B*07:02; [16]): 11.3 µM
- Kd (HLA-B*27:05; [16]): ≥ 20 µM
- Kd (HLA-B*35:01; [16]): 0.297 µM
- Kd (HLA-A*26:01; [16]): ≥ 20 µM
- Kd (HLA-B*40:01; [16]): ≥ 20 µM
Sequence: VMLDWGIEL

Sequence: EGIEGRIAY
- Kd (HLA-B*08:01; [17]): ≥ 20 µM
- Kd (HLA-A*03:01 [1]; [17]): ≥ 20 µM
- Kd (HLA-B*58:01; [17]): ≥ 20 µM
- Kd (HLA-B*44:02; [17]): ≥ 20 µM
- Kd (HLA-A*02:01 [2]; [17]): ≥ 20 µM
- Kd (HLA-B*15:01 [3]; [17]): 0.306 µM
- Kd (HLA-A*11:01; [17]): ≥ 20 µM
- Kd (HLA-A*69:01 [4]; [17]): ≥ 20 µM
- Kd (HLA-A*01:01; [17]): ≥ 20 µM
- Kd (HLA-A*31:01 [5]; [17]): ≥ 20 µM
- Kd (HLA-B*07:02; [17]): ≥ 20 µM
- Kd (HLA-B*27:05; [17]): ≥ 20 µM
- Kd (HLA-B*35:01; [17]): 0.0159 µM
- Kd (HLA-A*26:01; [17]): 0.00861 µM
- Kd (HLA-B*40:01; [17]): ≥ 20 µM

Sequence: LLARFGLEK
- Kd (HLA-A*03:01 [1]; [18]): 0.0141 µM
- Kd (HLA-A*11:01; [18]): 0.0103 µM
- Kd (HLA-A*31:01 [6]; source organism: Listeria monocytogenes J0161): 1.4 µM

Sequence: TIHDRIPHR
- Kd (HLA-A*03:01 [7]): 0.0619 µM
- Kd (HLA-A*31:01 [6]; source organism: Influenza A virus (A/nt/60/1968(H3N2))): 0.0204 µM

Sequence: TLYYLECKR
- Kd (HLA-A*03:01 [1]; [19]): ≥ 20 µM
- Kd (HLA-A*31:01 [6]; [19]): 0.0545 µM

Sequence: EVDEGSDMM
- Kd (HLA-B*08:01; [20]): ≥ 20 µM
- Kd (HLA-A*03:01 [1]; [20]): ≥ 20 µM
- Kd (HLA-B*58:01; [20]): ≥ 20 µM
- Kd (HLA-B*44:02; [20]): ≥ 20 µM
- Kd (HLA-A*02:01 [2]; [20]): ≥ 20 µM
- Kd (HLA-B*15:01 [3]; [20]): ≥ 20 µM
- Kd (HLA-A*11:01; [20]): ≥ 20 µM
- Kd (HLA-A*69:01 [4]; [20]): 0.141 µM
- Kd (HLA-A*01:01; [20]): 4.3 µM
- Kd (HLA-A*31:01 [5]; [20]): ≥ 20 µM
- Kd (HLA-B*07:02; [20]): ≥ 20 µM
- Kd (HLA-B*27:05; [20]): ≥ 20 µM
- Kd (HLA-B*35:01; [20]): 0.254 µM
- Kd (HLA-A*26:01; [20]): 4.43 µM
- Kd (HLA-B*40:01; [20]): ≥ 20 µM

Sequence: YTDLTYQSF
- Kd (HLA-B*08:01; source organism: Variola virus): ≥ 20 µM
- Kd (HLA-B*39:01; source organism: Variola virus): ≥ 20 µM
- Kd (HLA-A*03:01 [1]; source organism: Cowpox virus): ≥ 20 µM
- Kd (HLA-B*57:01; source organism: Cowpox virus): 3.76 µM
- Kd (HLA-B*48:01; source organism: Cowpox virus): ≥ 20 µM
- Kd (HLA-B*46:01; source organism: Cowpox virus): ≥ 20 µM
- Kd (HLA-B*58:01; source organism: Variola virus): 0.083 µM
- Kd (HLA-A*11:01; source organism: Cowpox virus): ≥ 20 µM
- Kd (HLA-B*15:09; source organism: Variola virus): ≥ 20 µM
- Kd (HLA-A*01:01; source organism: Cowpox virus): 0.019 µM
- Kd (HLA-A*31:01 [5]; source organism: Cowpox virus): ≥ 20 µM
- Kd (HLA-C*05:01): ≤ 0.001 µM
- Kd (HLA-B*27:05; source organism: Cowpox virus): ≥ 20 µM
- Kd (HLA-A*26:01; source organism: Variola virus): 0.233 µM
- Kd (HLA-B*40:01; source organism: Cowpox virus): ≥ 20 µM
- Kd (HLA-A*02:01 [8]): ≥ 20 µM
- Kd (HLA-B*15:01 [9]): 2.64 µM
- Kd (HLA-A*69:01 [10]): ≥ 20 µM

Sequence: AHYEEDVNL
- Kd (HLA-B*39:01; [15]): 1.71 µM
- Kd (HLA-A*03:01 [1]; [15]): ≥ 20 µM
- Kd (HLA-B*57:01; [15]): ≥ 20 µM
- Kd (HLA-B*48:01; [15]): ≥ 20 µM
- Kd (HLA-B*46:01; [15]): ≥ 20 µM
- Kd (HLA-B*58:01; [15]): ≥ 20 µM
- Kd (HLA-A*29:02 [11]): ≥ 20 µM
- Kd (HLA-B*44:02; [15]): ≥ 20 µM
- Kd (HLA-A*02:01 [2]; [15]): ≥ 20 µM
- Kd (HLA-B*15:01 [3]; [15]): ≥ 20 µM
- Kd (HLA-A*11:01; [15]): ≥ 20 µM
- Kd (HLA-A*69:01 [4]; [15]): ≥ 20 µM
- Kd (HLA-B*15:09; [15]): 1.8 µM
- Kd (HLA-A*01:01; [15]): ≥ 20 µM
- Kd (HLA-A*31:01 [5]; [15]): ≥ 20 µM
- Kd (HLA-B*07:02; [15]): ≥ 20 µM
- Kd (HLA-B*18:01): ≥ 20 µM
- Kd (HLA-B*27:05; [15]): ≥ 20 µM
- Kd (HLA-B*40:01; [15]): ≥ 20 µM

Sequence: AIYESNIGY
- Kd (HLA-A*03:01 [1]; [21]): 0.0083 µM
- Kd (HLA-A*11:01; [21]): 0.0151 µM
- Kd (HLA-A*31:01 [6]; source organism: Francisella tularensis subsp. tularensis FSC198): ≥ 20 µM

Sequence: MMGIILSKY
- Kd (HLA-A*29:02 [12]): 0.052 µM

Sequence: GTAPPPLTR
- Kd (HLA-A*03:01 [1]; [22]): 0.32 µM
- Kd (HLA-A*11:01; [22]): 0.0204 µM
- Kd (HLA-A*31:01 [6]; source organism: Mycobacterium tuberculosis variant bovis BCG str. Pasteur 1173P2): 0.00377 µM
